To fix the notation:
T1: Atg19-3D (S390D, S391D, S396D) (S. cerevisiae, UniProt P35193 1-415, S390D | S391D | S396D)
T1 sequence: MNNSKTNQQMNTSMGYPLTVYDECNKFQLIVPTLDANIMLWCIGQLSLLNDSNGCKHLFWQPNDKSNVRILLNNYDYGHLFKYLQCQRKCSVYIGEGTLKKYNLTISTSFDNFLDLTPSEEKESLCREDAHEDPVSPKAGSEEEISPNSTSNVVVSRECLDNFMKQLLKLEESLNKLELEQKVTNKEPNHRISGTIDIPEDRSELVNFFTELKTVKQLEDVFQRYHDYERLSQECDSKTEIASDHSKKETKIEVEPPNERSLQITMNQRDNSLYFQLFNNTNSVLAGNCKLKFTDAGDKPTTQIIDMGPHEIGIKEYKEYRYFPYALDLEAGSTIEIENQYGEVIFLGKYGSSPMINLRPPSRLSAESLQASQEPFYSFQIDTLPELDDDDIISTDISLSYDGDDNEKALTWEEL

B1: Atg18-mEGFP (natural protein)
chain: MSDSSPTINFINFNQTGTCISLGTSKGFKIFNCEPFGKFYSEDSGGYAIVEMLFSTSLLALVGIGDQPALSPRRLRIINTKKHSIICEVTFPTSILSVKMNKSRLVVLLQEQIYIYDINTMRLLHTIETNPNPRGLMAMSPSVANSYLVYPSPPKVINSEIKAHATTNNITLSVGGNTETSFKRDQQDAGHSDISDLDQYSSFTKRDDADPTSSNGGNSSIIKNGDVIVFNLETLQPTMVIEAHKGEIAAMAISFDGTLMATASDKGTIIRVFDIETGDKIYQFRRGTYATRIYSISFSEDSQYLAVTGSSKTVHIFKLGHSMSNNKLDSDDSNMEEAAADDSSLDTTSIDALSDEENPTRLAREPYVDASRKTMGRMIRYSSQKLSRRAARTLGQIFPIKVTSLLESSRHFASLKLPVETNSHVMTISSIGSPIDIDTSEYPELFETGNSASTESYHEPVMKMVPIRVVSSDGYLYNFVMDPERGGDCLILSQYSILMD
B2: Atg12–Atg5-Atg16-mCherry complex (complex)
chain 1: MSRILESENETESDESSIISTNNGTAMERSRNNQELRSSPHTVQNRLELFSRRLSQLGLASDISVDQQVEDSSSGTYEQEETIKTNAQTSKQKSHKDEKNIQKIQIKFQPIGSIGQLKPSVCKISMSQSFAMVILFLKRRLKMDHVYCYINNSFAPSPQQNIGELWMQFKTNDELIVSYCASVAFG
chain 2: MNDIKQLLWNGELNVLVSIDPSFLMKGSPREIAVLRIRVPRETYLVNYMPLIWNKIKSFLSFDPLTDSEKYFWFEHNKTPIPWNYPVGVLFDCLAGKSATFTTSFENQVKDVLTFLRIHLVMGDSLPPTIIPIASSKTQAEKFWFHQWKQVCFILNGSSKAIMSLSVNEARKFWGSVITRNFQDFIEISNKISSSRPRHIPLIIQTSRTSGTFRISQPTISMTGVNPTLKDIEGDILDVKEGINGNDVMVICQGIEIPWHMLLYDLYSKLRSFDGFLYITLVPIKGGDKASSEL
chain 3: MGNFIITERKKAKEERSNPQTDSMDDLLIRRLTDRNDKEAHLNELFQDNSGAIGGNIVSHDDALLNTLAILQKELKSKEQEIRRLKEVIALKNKNTERLNDELISGTIENNVLQQKLSDLKKEHSQLVARWLKKTEKETEAMNSEIDGTK
modifications: Atg12–Atg5 conjugate | Atg12–Atg5 conjugate
B3: mEGFP-Atg21 (natural protein)
chain: MKVLQFNQDATCCVVAASSHQISIFNCDPFGKCFEIDTKNSKKKTSNNNGSASNSESRNNEESILITNGSRDRTDAEEEEDNEDNALVTGNILKEGEFVIEMLFSTSLIAIADRGQGLNKGKKLKIVNTKRKCTICEIVFPHEIVDVVMNRKRMCVLLESDQIFIYDISCMKPLETIDLWEDHYKRSQANSFSNASNTGTLEGDSANLNRVATNLLANATQKSVNGSNPSVRTRRNSLRSKIRPRMVLSNDDRSILCFTAYSSPKKNKPNSEALYDVVIYDTLNVTPVNYLNSVHKGNVACLAVSHDGKLLATASDKGTIIRVFHTGVDSDYMSSRSLFKEFRRGTRLCNLYQLAFDKSMTMIGCVGDTDTIHLFKLDDASNSLPGDNSSNGHWNEEEYILASNSNPSMGTPKEIPLSKPRIANYFSKKIKSSIPNQNLSRNFAYITVNESNRSCLGFPDEFPNQVYIASDDGTFSIYSIPSKPGECVLTKNNKFT

What all share (assay): pull-down
For experiment [1], the target named is B2.
Experiment [2] deals with Atg2-mEGFP (yeast (S. cerevisiae), UniProt P53855 1-1592).
For experiment [3], the target named is Atg2-GFP-Atg18-CBP complex (yeast (S. cerevisiae), UniProt P53855;P43601).
Experiment [4] deals with B2. This is another data set of the same source.
Experiment [5] addresses T1, Atg19-3D (S390D, S391D, S396D).

Read-outs that look alike come from different tables or passages of the source.

Atg2-mEGFP, sequence (P53855 whole entry): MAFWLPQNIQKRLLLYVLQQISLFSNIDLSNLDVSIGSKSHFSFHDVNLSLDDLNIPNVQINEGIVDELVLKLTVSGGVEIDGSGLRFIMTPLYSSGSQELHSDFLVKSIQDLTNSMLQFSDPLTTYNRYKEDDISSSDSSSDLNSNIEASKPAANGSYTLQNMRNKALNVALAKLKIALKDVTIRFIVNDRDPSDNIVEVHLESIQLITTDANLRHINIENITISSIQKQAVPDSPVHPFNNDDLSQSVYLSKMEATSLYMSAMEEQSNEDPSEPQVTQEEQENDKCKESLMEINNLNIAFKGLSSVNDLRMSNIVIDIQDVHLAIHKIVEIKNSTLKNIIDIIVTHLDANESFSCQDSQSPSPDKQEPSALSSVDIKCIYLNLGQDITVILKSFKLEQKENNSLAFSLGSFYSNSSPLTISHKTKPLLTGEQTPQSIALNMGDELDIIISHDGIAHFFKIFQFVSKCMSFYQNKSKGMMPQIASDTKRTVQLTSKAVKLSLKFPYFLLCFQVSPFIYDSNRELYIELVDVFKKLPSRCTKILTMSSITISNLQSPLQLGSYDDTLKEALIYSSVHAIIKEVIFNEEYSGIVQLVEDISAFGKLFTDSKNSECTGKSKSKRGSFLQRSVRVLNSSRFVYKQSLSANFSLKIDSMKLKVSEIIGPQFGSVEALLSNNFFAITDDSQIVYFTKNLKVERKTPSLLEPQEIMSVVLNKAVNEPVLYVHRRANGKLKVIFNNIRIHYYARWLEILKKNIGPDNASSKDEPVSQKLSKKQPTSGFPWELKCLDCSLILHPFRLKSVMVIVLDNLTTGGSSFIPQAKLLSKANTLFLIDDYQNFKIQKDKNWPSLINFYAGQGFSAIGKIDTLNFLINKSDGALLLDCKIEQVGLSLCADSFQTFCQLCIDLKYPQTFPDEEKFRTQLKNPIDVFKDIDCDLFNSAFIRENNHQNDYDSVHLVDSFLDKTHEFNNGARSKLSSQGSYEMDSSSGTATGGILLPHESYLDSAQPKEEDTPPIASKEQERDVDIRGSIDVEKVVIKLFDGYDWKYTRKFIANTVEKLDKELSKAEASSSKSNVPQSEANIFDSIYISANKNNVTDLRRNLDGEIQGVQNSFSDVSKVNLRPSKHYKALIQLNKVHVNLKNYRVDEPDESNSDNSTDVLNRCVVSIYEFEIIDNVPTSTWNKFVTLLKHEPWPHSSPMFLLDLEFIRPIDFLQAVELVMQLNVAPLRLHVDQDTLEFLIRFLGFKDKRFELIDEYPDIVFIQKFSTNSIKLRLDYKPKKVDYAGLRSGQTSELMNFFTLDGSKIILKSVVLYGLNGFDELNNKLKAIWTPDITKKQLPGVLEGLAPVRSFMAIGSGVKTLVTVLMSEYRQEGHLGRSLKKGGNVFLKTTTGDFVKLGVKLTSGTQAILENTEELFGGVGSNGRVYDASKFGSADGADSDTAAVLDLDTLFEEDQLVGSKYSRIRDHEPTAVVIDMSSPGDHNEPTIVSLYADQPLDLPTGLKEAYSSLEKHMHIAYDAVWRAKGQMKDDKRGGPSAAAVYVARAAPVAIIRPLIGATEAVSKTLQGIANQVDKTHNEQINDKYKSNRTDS
Atg2-GFP-Atg18-CBP complex, sequence (P53855 whole entry, one chain of several): as the sequence (P53855 whole entry) above

For the molecule B1, the binding result in experiment [1] is on record as “binds”. Consider B2, for which the binding result in experiment [2] and in experiment [3] was “binds” throughout. Consider B3, for which, in experiment [4], the binding result is “binds”. For the molecule MEEQREILEQLKKTLQMLTVEPSKNNQIANEEKEKKENENS (domain or fragment) [GST-prApe1 (1-41)], the binding result in experiment [5] is reported as “binds”.
